In patent publication US20140128287:

Molecular target: GEV (Gal4 DBD - estrogen receptor - VP16) (synthetic construct) (UniProt P04386)
Test: cell_activity
Conditions: yeast reporter with three pairs of GEV sites, 15 min after beta-estradiol

GEV (Gal4 DBD - estrogen receptor - VP16) (synthetic construct), sequence (P04386 1-93): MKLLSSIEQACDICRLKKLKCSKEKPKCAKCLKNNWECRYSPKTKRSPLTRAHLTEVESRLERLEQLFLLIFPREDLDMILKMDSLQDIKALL

CGGNNNNNNNNNNNCCG (double strand) [GAL1 promoter UASgal (Gal4 consensus site)]
activity (fold induction of GFP transcripts): > 50
